Consider one molecule from paper PMC7105911 (Journal of Molecular Biology, 2011).

Residue numbers refer to the chain shown, from its start. Where “and” joins values, the source holds several entries; their conditions need not be identical. Equal entries are not always repeated.

Common to all, as to test: SPR
Background: In SPR one partner is held on a chip, and binding of the other changes the refractive index at the surface.

Test [1] deals with T1, BB_2cx5_001 (backbone grafting 2F5 epitope scaffold on parent PDB 2cx5) (designed scaffold on Thermus …).
T1 chain: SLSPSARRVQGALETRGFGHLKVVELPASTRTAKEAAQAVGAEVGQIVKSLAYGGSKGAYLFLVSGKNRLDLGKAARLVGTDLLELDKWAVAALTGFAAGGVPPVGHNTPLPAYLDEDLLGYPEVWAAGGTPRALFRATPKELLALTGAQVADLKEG

Test [2] deals with T2, BB_1wnu_001 (backbone grafting 2F5 epitope scaffold on parent PDB 1wnu) (designed scaffold on Pyrococcus …).
T2 chain: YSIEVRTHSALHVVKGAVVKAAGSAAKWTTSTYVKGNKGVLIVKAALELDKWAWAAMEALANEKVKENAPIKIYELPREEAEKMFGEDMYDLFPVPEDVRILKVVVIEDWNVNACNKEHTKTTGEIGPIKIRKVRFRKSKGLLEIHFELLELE

Test [3] deals with T3, SC_1wnu (side-chain grafting 2F5 epitope scaffold on parent PDB 1wnu) (designed scaffold on Pyrococcus …).
T3 chain: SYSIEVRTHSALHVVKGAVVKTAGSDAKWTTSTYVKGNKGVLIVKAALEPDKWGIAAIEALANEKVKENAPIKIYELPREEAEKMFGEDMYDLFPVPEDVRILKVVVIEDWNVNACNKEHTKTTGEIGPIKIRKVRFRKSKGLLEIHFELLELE

The target in test [4] is T4, SC_2cx5 (side-chain grafting 2F5 epitope scaffold on parent PDB 2cx5) (designed scaffold on Thermus …).
T4 chain: T1 chain with A52V, S56E, A76T, T81G, D82P, L86A, A98D

B1: 2F5 monoclonal antibody (2F5 IgG) (antibody, V domains shown)
VH: RITLKESGPPLVKPTQTLTLTCSFSGFSLSDFGVGVGWIRQPPGKALEWLAIIYSDDDKRYSPSLNTRLTITKDTSKNQVVLVMTRVSPVDTATYFCAHRRGPTTLFGVPIARGPVNAMDVWGQGITVTISS
VL: ALQLTQSPSSLSASVGDRITITCRASQGVTSALAWYRQKPGSPPQLLIYDASSLESGVPSRFSGSGSGTEFTLTISTLRPEDFATYYCQQLHFYPHTFGGGTRVDVR
Take B1: the Kd (usually a measure of binding affinity in units of concentration) was 1.4 nM in test [1]; 8.3 nM and 8.7 nM in test [2]; 91 nM in test [3]; 40.2 nM and 38.3 nM in test [4]. Further, the “Kd kinetic, step 1 (conformational change model)” value in test [3] is 0.000109 mM. The “Kd kinetic, step 2 (conformational change model)” value in test [3] stood at 3800 mM.
